Laboratory results from US11214624.

Molecular target: microtubule (in vitro reconstituted, taxol-stabilised)
Assay: cell-based or functional assay

% of gliding microtubules (n = 50), ATP: 89.2% | Maximum gliding speed, ATP: 0.27 µm/min | Mean gliding speed, ATP: 0.17 µm/min
Substance: kinesin (positive control motor protein in the gliding assay)
